The target in the experiment is PsFcγRIIa (recombinant soluble human FcγRIIa protein produced in baculovirus-infected Sf-21 cells) (human) (UniProt P12318). Briefly: SPR competition; monomeric IgG (0 to 2 mg/ml) premixed with 50 ug/ml PsFcγRIIa, passed over immobilised IgG1.

In patent publication US20060057144A1 one finds molar excess giving complete inhibition (fold molar excess) data, which are given here for 1 substance.

“monomeric IgG (Sandaglobulin, available from Sandoz) (antibody)”: the molar excess giving complete inhibition (fold molar excess) was 6.
